Reference: article PMC12819142, “Atomic models of the Toxoplasma cell invasion machinery” (Nature Structural & Molecular Biology, 2025)

What was measured:
[1] = molecular target: the molecule itself; experiment: cryo-EM structure; intraconoidal microtubule ICMT-1, native, from isolated T. gondii conoids; single-particle analysis, 3.3 Å
[2] = molecular target: the molecule itself; experiment: cryo-EM structure; conoid fibers (CF), native, from isolated T. gondii conoids after sonication and α-chymotrypsin; single-particle analysis, 2.9 Å (8-nm repeat) and 3.1 Å (24-nm repeat)

Protein | stoichiometry N [1] | stoichiometry N [2]
ICMAP2 (natural protein, source: endogenous, isolated conoids of T. gondii tachyzoites (CHAPS lysis, sonication, α-chymotrypsin)) MVTFKSGEVDEHHESFLRREPRSPSRSPSAVQSSWKPVCYIEEIDSLTTFPSSASCDSSSKTKSSRSLISTSLDQPRDSASSSSEPRQSGLLHVNAQDLSPSRPPESLYQTGYVRSPSSFDGTLSCVGEKTGVVRGKSGHPPLSFRSPRMQSVAHSEDRDRKGLTYSFDAYPPEVFSRWKGRSRTGESCGLVTSSRGRSPCSRSPPGRSFPRCVDPQTDRIEEASQNCLPQSSELHASEVLGPADPAACPTQKPTVEPDSSVAASVFCPGTQAESQQVPSLPTDAFSGGDPVRSQVGSKRSHLLEDIQGKTRCSAARAVIDFDASGIRSVVVSDLGGTPLRLSPYLDTLPRSNHPLVLSKAATSVPPYCSSSSENFSEARQGGESRLTGGAAPEGGKLKASAVLGGNPQPRSCPSGGTQAMGGKYQAEESPTRSVFRGKVTVPAAEVHTTQAAGCPSERKVGEFRCQTDTDTLRHFRKSLRSYSDSPKRPETNSLNQGRSGSSRIIGQLSDATFGCRDSMASVRGAFAPPTSTVSKSLRHDEAVLREQGIKVRQKDAIFLKGVEKRHLGMQAGRQDSKPRYGLESAASCNATGAGEDPSPGFRIAGRASSSICAGGSSGESMNSAFMRGLPGSASNVRLPQWMRDYGVEDPSLQTDGCSRNVVSTRHPGTCQYSSADARRPRMRVSAGAPANLTPYLWDENSDRDGDNSLEDISCGPPYRGEMTYSITHSGNSGNQLSSQLPPAPLSVPGDVGSFGFPVAHFVCSNCGATAVPPQCPTCGAVIVQFDGTTQIPVAYRTNGTDALGLASRAVLRNGDSRSVQFSGEADPQSRSYAPYDASPSRSRGPSASRRSHVHSSRQERRELSRGEAETERCTAGTARRSGMVAVTAKKSGPPSRQRLVASSGPSLPSTKKLASQVWGSPRVCAILCSFLGLPQLLTIRRCSKNLLVAAQFEMRYVLYGTLQQLLREEETSKKATSSRPKSCEPPSARNREGRGRTLTPGVASTASARDRSLPACPFNAQTLTRLLELSPAELTALKNGQLPDRRVADAKTPRPEELRARASRLRRLHAERVEEQRRRVSARTSGKRVDREATEPVLVGLDEEMQLRREMQLQHEEELLMRERRLQQQECELFKKQQEIWLQETQQRLRQNITRNGRPHFAVPEPAALSGAGASFPCAHPGGWQKRHVGFDDDLVKGPEIDYESEPPSFRRLRHSFLKLWNYNEAQFKAALYRHAFSSFPAYNYDTTAILCRCIYQLCADATSALPLNSILMLLTDRQSYLWRRMARLSGYVICSFTLNGCRREIGPSMPTTIQRVVPIPLDDGCWDGGRSRGSHRATPSRGRGGASRVGREFGDDSSEDPIPPFCWKEGIRGAVLESIELKLAKLSEEFIDEFVLYGRQQGLLLQLQGADSTVNGRLLATTLRRFCKQPEDRYVLMDLYEWLAAAMTFSQKCIKAKIEAAKRASPSPQCRIARPCTGRLQAFPPYERSEGRYGGRSTTPAFGSSVRGRSGCPGRVETPGATSAMTRGRSIARVSMGARRGVVEDSVHSIAYENALSSRTKSRERHADTPTRSRLVLRGNRAADFQRPVRGRSPDSSANHTGVFGRRSDGKLSTQSGVRSSSASRSRLTNQVSSGLTAREAAALCRLLQNQGKILEEVKQILNNMSAPGRRHTRVP | 2 | –
SAS6L (natural protein, source: endogenous, isolated conoids of T. gondii tachyzoites (CHAPS lysis, sonication, α-chymotrypsin)) MATNFGFGGGASGCTDSVNFLAQVDTSAIDEMDPSLADGHTLVYSREVPFEIRLQETGSSLPGDVGRLEPIRVKILILGEETNPQHVRVELTSENDLFLNYTHALNEDLFRQMQERQKLMIEFGDYPSVLIKMLNSCIKEPHCFLAVLIMHTNGKARLDFIQSMEYKFIELLCLDCVQSTEEFTRRDMTFRYNALKSKLALLQARLHDIGCLLKLKSPSLLLHLQKAAQQQAHRRQQQVAAAAPIPGKLRAPGTTEGASTRFL | – | 2
CF1 (natural protein, source: endogenous, isolated conoids of T. gondii tachyzoites (CHAPS lysis, sonication, α-chymotrypsin)) MQPLAREVSRLPRSGPLGPVAAKKDDKTFIPTNVRVSPGEKNDRVVKTEKIDDSTDGSGSHDGPRNLETQLEALTREVRELTLRVQEEKEMKELLNSQLNDAYEELADARSEHRVRGFAGASGARLRGVRGLPAFEARWMEPEHPTAQTAIRSQQEFELLLQEERARRHTMFEQYERHMKVMRKNHHKEKLETKKKVLSQVEFLIKKYRRLASDAVAVAKRERERVAEERKRARELAERACKNFEADLKGRTKTALEQYRRLVQEAHTAAKQEREELHNKCKELQETVDNERREFDTLIVREAEAKMAKFRASYARMKQQTEEERRQYGVMMHEIAKRVEKECAEYEEFVIRTMRDLLQSKGVEMTESGLRDFFQKKREEMRPSGEGHSSTDGLVTVKYRFQAADPEDLQ | – | 2
ICMT-associated protein 1 (ICMAP1) (natural protein, source: endogenous, isolated conoids of T. gondii tachyzoites (CHAPS lysis, sonication, α-chymotrypsin)) MMADLTLEPRGAGASRYLMTDLEDLDSSEGNSLVPYSRLGKSGNTDANLYSTPDMTTRYPGSRGLLRDDSRGSGGLDDPMGLPMRSLSPKDLGGRGGPRLSPAELKAQVRLRNMCGKPLRPDDVLVTRILTGEKSYWEALDEMRNLCASLTVENEKLKTGNAKATTKALEVEQKSRAEIRRLQTLQRVTRDELEMKLQDLTAENVRLRQSRDVERALQEQKVHMQKQIERLKQDSEEKGRLAAQRAREIHHLKEETQRSTDEAEALKGRVESLQAKLAEAISQKNLLLIRVKKDIRDIQDSAQQAREAVLAEKARSEQQAAEVEKHAQMQLQLHERKIRDLQQTVASEESQGEYYRRKYEEASKQLAKLKTQFDSTQNKTETDIALRERKLQELSESLNAAQKARDRSAQELNAMRSKYNILRGELEKAEQRRNHAEQEAIRAGAQVETMDVGRSTLEAKVSELQLERSGLMEKLQLAEKEVSELREAKNKIKASLDLAYQKEQFRLLEENSRIGTDLKVAQQQLDTVTRQKEQLQTDAERLRGAEEELREMQVDFLKMKTTLQLVQGRPCDNAKVVADGVVNALRAYAELKKATETQEQSMASLSQQNQALSQKANEAATLTREMLTLESENRSLNEHIASLTAELRKIGDQQTALQLEKEAQDEAFRQQIERVQKEAEARRRELDHQLEQAKERHRQETTKLTAELDRVKKLHDAEKKRTSELQVQVEDVKAEATQHTEGLEKRYQEQLRERNAQIEALSSEREEFAAETRAEIQQLKKTHADALKAARADRDKVLAERESHYQQQLEEMRTRQEQHAASQHHQRQELQQRLQQLELSFQETEANLRREVDAKAADVRSLQGQKEKLERELGAVKERLEDEQRSADRNLERVKRERQQDVERLQKELDDATRLAAEAERTAAEKIQSLETDVKNTRDQLKKANAGSEEKESLLEASKTRYADLENKHNDVVQKFNDLSEENKKLKKDLSAAADDKEAKEKQIKKLTDAQARDQQEIAAIKQKEREAIAAGDRLNAEIEKLKAEHRSAELKLKNDIDAVTTDKEAVEAKLAQVQKMHKEEAEALNSRIAQLTKEKADLEKAQRNLEEEKAALEQEKRKAASEAKVKQDLLEQKIAELQKQNQNLENGLRAAKAAGAAAAARPAPGAPGQAPPAAQAPQAGAPPAEEGGLFSWWGGGAAEAPPEAPASSAGAPAEAAPAPAAEAESSSWGWW | 2 | –
